Series [1] addresses Full-length FLAG-tagged recombinant SMCHD1 (mouse) (UniProt Q6P5D8). The series can be described thus: negative-stain electron microscopy; purified FLAG-rSMCHD1, 100 ng/ml, 0.75% uranyl formate, 80 kV.
Series [2] deals with the molecule itself. The series can be described thus: SEC; affinity-purified wild-type and mutant hinge domains on a Superdex 75 10/300 column, 0.5-ml fractions, A280 and Coomassie-stained SDS-PAGE. On the technique in general: Size exclusion chromatography separates by hydrodynamic size, large species first.

Broadly, the stoichiometry N is a count of units in the complex or per binding partner.

On to “Full-length FLAG-tagged recombinant SMCHD1, Q6P5D8 1-2007”, for which the stoichiometry N in series [1] came to 2.

B1: SMCHD1 hinge domain, recombinant wild type (residues 1616 to 1963) (domain or fragment, mouse, UniProt Q6P5D8 1616-1963, looked up)
chain: NDVKKQQQMAALTKEKDELSKSITMYRSLFDANKQLVDEMKCQAEEAKLKETQLRNELKAYNIDIPATQQTTHIEALLEKKITEQNELKKRPRRLCTLPNYTKRSGDILGKIAHLAQIEDDRAAMVISWHLASDMDCVVTLTTDAARAIYDETQGRQQVLPLDSIYRKTLPDWKRPLPHFRNGKLHFKPFGNPVFARDLLTFPDNIEHCETVFGMLLGDTIILDNLDAANHYRKEVVKITHCPTLLTRDGDRIRSNGKFGGLQNKAPPMDKLRGMVFGAPVPKQCVVLGKQIDLIQQYRTALYRLSSVNEDLDNQLQYLHTPDMKKKKQELDEQEKSLKRIEQKLGMT
notes: SMCHD1 SMC hinge domain, mouse, residues 1616 to 1963; Cloned into pET28a; also called wild-type HD; WT hinge; source: E. coli BL21-RosettaBlue, purified (Talon resin)
Regarding B1, the “stoichiometry N” value in series [2] was 2.

(Values after publication PMC4628070, “Independent Mechanisms Target SMCHD1 to Trimethylated Histone H3 Lysine 9-Modified Chromatin and the Inactive X Chromosome” (Molecular and Cellular Biology, 2015).)
